Results as given in the supplement of paper PMC10567573.

B1: NP_015628.1 (parent)
chain: EQRNSRWNTVLRAVKAKTHHLEP
B2: MLH1 (parent)
chain: YNIATRRKALKNPSEEYGKILEVV

Variants of: B1
Assay: protein stability index of a GFP-peptide fusion (GPS, HEK-293T) (PSI 1-6); higher = more stable
Settings: c terminus: native

Protein stability index, by site and new letter:
S5: M 2.4; D 2.96; H 2.62; A 2.67; F 2.61; R 2.42; Q 2.67; P 2.78; G 3.32; W 2.46
E1: W 2.94; S 2.4; T 2.27; Y 3.33; K 2.12; N 2.91; C 2.79; L 2.87; P 2.74; V 2.65; F 2.52; I 2.79; G 2.9; A 2.66; R 3.15; Q 3.13
L11: M 3.19; H 4.49; Q 4.63; V 2.5; T 3.12; N 4.51; K 4.86; C 2.47; P 5.12; G 4.32; S 4.1; E 4.36; F 3.9
R6: Q 2.62; C 2.45; S 2.4; M 2.72; G 3.11; Y 2.94; I 3.4; E 3.39; F 3.03; W 2.07; D 2.7; P 2.51; A 2.85
E22: Y 3.91; A 2.87; T 3.23; S 3.09; L 3.02; D 3.21; P 4.21; Q 3.28; C 2.63; V 3.49; H 3.45
K17: C 2.61; T 2.84; H 2.52; A 2.77; F 2.75; R 3.33; M 2.91; D 3.1; V 2.79; W 2.62; L 2.62; Y 2.82; P 2.96
R3: S 3.47; D 3.97; M 3.25; E 3.33; H 2.99; P 3.25; A 3.25; I 3.09; L 3.23; F 3.35; K 2.79
P23: G 4.74; E 3.95; R 3.9; I 4.19; K 5.17; Q 5.08; V 4.13; Y 4.4; N 4.98; D 4.92
T18: C 2.5; I 3.12; S 2.29; E 3.26; D 3.14; P 2.93; A 2.91; Y 2.84; Q 3.34; K 2.97
L21: P 4.27; H 4.16; W 4.04; R 2.08; E 4.79; Y 3.81; K 4.92; M 3.01; F 3.82; N 4.59; G 3.67
V14: D 2.89; G 3.31; I 3.37; L 3.05; E 2.45; T 2.97; Y 2.87; W 3.26; R 2.96; P 2.73; S 3.28
H20: T 3.27; L 3.6; Q 2.89; K 4.01; C 2.23; G 1.9; S 2.66; Y 3.25; F 3.22; D 3.09; I 3.15; N 3.47
A16: Q 2.99; W 2.92; E 2.37; V 2.95; M 2.9; N 2.35; Y 2.78; P 2.78; I 2.73; D 2.82
K15: S 3.26; H 3.22; N 3.17; A 3.24; V 3.11; T 2.99; I 3.1; W 3.24; C 3.1; Q 3.05; D 3.21; M 3.33; G 3.31
H19: V 3.31; P 2.65; A 3.34; W 3.54; G 3.86; N 3.56; M 3.37; R 2.96; K 3.57; T 3.74
Q2: G 2.74; R 2.9; Y 2.97; S 2.87; I 3.24; F 3.02; V 2.76; A 2.98; E 3.55; N 2.88; T 2.38
A13: S 3; Q 2.7; T 2.97; K 2.87; I 2.66; L 2.69; D 2.78; G 2.89; W 2.93; F 2.52
N8: M 2.15; H 2.64; P 3.65; Y 2.61; C 2.01; G 2.49; R 2.53; L 2.29; V 3; I 2.6; A 1.94
W7: A 5.18; S 5.32; M 5.33; R 5.19; L 4.66; C 5.2; H 5.21; F 4.71; T 5.14; D 5.12
T9: F 1.99; D 2.29; I 3.02; R 4.1; V 2.74; N 3.3; Q 3; M 3.04; H 2.38; P 4.6; E 2.38; Y 2.23; W 2.3
N4: M 2.94; D 3.22; P 2.67; H 2.48; I 2.94; W 2.4; K 2.67; A 2.5; L 2.87
R12: M 2.8; T 3.07; H 2.98; F 2.41; V 2.47; C 2.74; K 2.97; A 2.77; W 2.67; N 3.21; I 2.46; S 2.57; E 2.79
V10: Y 2.53; E 3.92; W 2.78; A 3.52; M 2.89; S 3.63; N 3.76; C 3.99; D 4.65; F 2.74; H 2.81; Q 3.25; T 3.15; I 2.92; K 3.15

Variants of: B2
Assay: as above
Settings: c terminus: a fixed tail appended

Protein stability index of substitutions, site by site:
Y1: Q 3.6; I 2.48; F 2.43; W 2.86
R7: W 1.78
R6: D 3.69; T 2.32; N 2.85; C 1.89
G18: D 3.15; C 2.5; Q 2.7; Y 2.34; W 1.46; N 3.13
E15: R 2.46; N 2.43; S 2.49
L10: H 3; C 2.84; R 3.13
V23: E 4.21; Y 2.5; F 2.1
L21: C 4.26
K11: S 2.48; I 2.04; E 3.48
Y17: Q 3.97; L 2.63; M 3.11; E 4.04; K 3.37
I20: F 2.39; E 3.54; Q 3.8; N 3.54
S14: R 2.94; F 2.01; Q 2.79; L 1.78
I3: K 2.98; C 2.69; F 2.85
V24: G 3.32; F 2.98; L 2.45
E16: S 2.71; M 2.15
N12: V 1.98; R 3.3
N2: V 1.87; Q 2.51; D 3.14; G 2.7
A9: W 2.75; S 2.93
A4: D 3.15
T5: E 3.54; D 3.06; I 2.17; V 3.09
P13: R 2.78; T 2.89
K19: N 3.29
E22: V 3.63; G 2.42
K8: G 3.37
